Data published in patent US20220160939A1, “SELF-ASSEMBLING PEPTIDES AS BRONCHIAL OBSTRUCTION AGENTS” (3-D MATRIX, LTD., priority 2014, published 2022).

How the values were obtained:
Assay type in all cases: physicochemical
[1] = Gelation kinetics of pH adjusted peptides, time sweep test with DMEM
Procedure: The effect of pH level on the properties of gelation kinetics was evaluated to identify optimized pH levels for the peptides as described herein. Fast gelation kinetics of PuraMatrix® and other peptides within body fluid may generally improve its function and response time for various clinical applications. The pH level may impart response time to begin gelation when treated with simulated body fluid including but not limited to DMEM. […] A fast response time of PuraMatrix® (SEQ ID NO:1) and other peptides within body fluid may generally improve its function and response time for various clinical applications.
Time sweep tests were performed at 1 rad/sec and at 1 Pa with 20 mm plates and 500 μm gap distance. During time sweep test of PuraMatrix® (SEQ ID NO:1) 2.5% solution, DMEM was added into the chamber surrounding the measuring plates to soak PuraMatrix® (SEQ ID NO:1) solution at 0 time point. The results are shown in FIG. 9A for PuraMatrix® (SEQ ID NO:1) 2.5% solution.
Time sweep tests were performed at 1 rad/sec and at 1 Pa with 20 mm plates and 500 μm gap distance. During time sweep test of IEIK13 (SEQ ID NO:2) 1.5% solution, DMEM was added into the chamber surrounding the measuring plates to soak IEIK13 (SEQ ID NO:2) 1.5% solution at 0 time point and continuously data was recorded. The results are shown in FIG. 9B for IEIK13 (SEQ ID NO:2) 1.5% solution.

[2] = Rheological properties of ionic strength adjusted hydrogels after DMEM treatment for 10 min; settings: 1% hydrogels
Procedure: Based on the results of the effect on the rheological properties of the peptide solutions after adjusting their ionic strength levels, the effect on the rheological properties of the peptide hydrogels after DMEM treatment for 10 min was evaluated. […] The results are shown in FIG. 15 for PuraMatrix® (SEQ ID NO:1) 1% hydrogels and in FIG. 16 for IEIK13 (SEQ ID NO:2) 1% hydrogels, both after DMEM treatment for 10 min. Frequency sweep tests were performed from 1 rad/sec to 10 rad/sec at 1 Pa and the storage modulus at 1 rad/sec was selected for data.
Based on the results of the effect on the rheological properties of the peptide solutions and hydrogels after adjusting their ionic strength levels with NaCl, the effect of various salts (KCl, MgCl2, and CaCl2) was also evaluated. The rheological property of PuraMatrix® (SEQ ID NO:1) solutions increases with ionic strength adjustment at 0.15 M of all the salts. Increases of the rheological property of PuraMatrix® (SEQ ID NO:1) solutions with various salts were not predominantly different. However, increases of the rheological property of PuraMatrix® (SEQ ID NO:1) solutions may vary depending on the salting out constant, K of each salt. Constant K is a constant in Cohen's equation: log S=B−KI, where S is solubility, B is idealized solubility, K is salting out constant, and I is ionic strength. With a higher value of constant K and ionic strength of salts, solubility of the peptide may decrease resulting in strong peptide self-assembly with increased hydrophobic effect and higher rheological properties of the peptide solution. The constant K of NaCl may be higher than the other salts. […] The results are shown in FIG. 17 for PuraMatrix® (SEQ ID NO:1) 1% solution before DMEM treatment, and in FIG. 18 for PuraMatrix® (SEQ ID NO:1) 1% hydrogels after DMEM treatment for 10 min Frequency sweep tests were performed from 1 rad/sec to 10 rad/sec at 1 Pa and the storage modulus at 1 rad/sec was selected for data.

[3] = Mechanical properties of IEIK13 with and without Indigo Carmine; settings: 1.5% IEIK13; 0.00585% Indigo Carmine; 24 hours post reconstitution
Procedure: Indigo carmine powder was used to prepare a 1% solution in deionized (DI) water. Using IEIK13 (SEQ ID NO:2) powder, a 2 percent solution was prepared using DI water. The amount of IEIK13 (SEQ ID NO:2) was weighed out and the appropriate amount of DI water was added gently down the side of the container. Mixing was accomplished by vortexing for about 30 seconds, and then sonicating for 30 seconds. The solution was then centrifuged for about 10 to about 15 minutes at […]. The solution may undergo further vortexing and centrifuging until the solution is clear and without bubbles.
To obtain a final concentration of 0.00585% indigo carmine, the necessary amount of 1% IC is added to the appropriate amount of DI water to dilute 2% IEIK (SEQ ID NO:2) to 1.5% IEIK (SEQ ID NO:2). The solution is then vortexted for about 30 seconds and centrifuged for about 10 to about 15 minutes at 3000 rpm. The solution may undergo further vortexing and centrifuging until the solution is clear and without bubbles.
The solution was allowed to sit overnight at room temperature prior to use. The cap may be left off of the container during preparation to allow more efficient removal of bubbles.
Visualization of hydrogel spreading throughout the lumen of the lungs was necessary for determination of feasibility. Indigo Carmine was chosen as a common contrast reagent. […]

[4] = Gelation kinetics of 0.5% RADA16 treated with cations and anions
Procedure: Rheological measurements of gelation kinetics of 0.5% RADA16 (SEQ ID NO:1)+NaCl, KCl, and CaCl2) were evaluated. A solution of 0.5% RADA16 (SEQ ID NO:1) was prepared and gelation kinetics were observed by treatment with several cations (e.g., Nat, Ca^2+, K^+) and anions (e.g., Cl^−, CO3^2−, PO4^3−, SO4^2−). It was determined how long it will take for the peptide mixtures to gel and how to control that gelation time by varying the cation/anion type and concentration. […] In vivo and in vitro qualitative experiments and the resulting observations were supportive of these conclusions.

[5] = with pH adjustment, PuraMatrix 2.5%, IEIK13 1.5% solution

Substance	gelation response to DMEM [1, 5]	gelation response to DMEM ([1]; without pH adjustment, 1.5% solution)	ionic strength above which the rheological property of hydrogels after DMEM treatment decreases ([2]; DMEM treatment for 10 min)	rheological property of hydrogels after DMEM treatment ([2]; ionic strength adjustment up to 0.025 M, DMEM 10 min)	mechanical properties with versus without Indigo Carmine [3]	ionic strength up to which the rheological property of hydrogels after DMEM treatment increased ([2]; DMEM treatment for 10 min)	gelation speed by anion ([4]; chloride)	gelation speed by anion ([4]; sulfate)
Ile-Glu-Ile-Lys-Ile-Glu-Ile-Lys-Ile-Glu-Ile-Lys-Ile [IEIK13]	immediate storage modulus increase	immediate storage modulus increase	above 0.03 M	did not significantly change	no significant difference			
Arg-Ala-Asp-Ala-Arg-Ala-Asp-Ala-Arg-Ala-Asp-Ala-Arg-Ala-Asp-Ala [PuraMatrix ®]	immediate storage modulus increase		above 0.7 M			up to 0.7 M	quickest gelation	slowest gelation
